Experimental data published in PMC2686087.

Key:
[1] = molecular target: CaV2.2/α2δ-2 calcium channel coexpressed with wild-type β2a (UniProt Q05152)
[2] = molecular target: CaV2.2/α2δ-2 calcium channel coexpressed with wild-type β2a (UniProt Q05152); remark: listed apart in the source
[3] = molecular target: CaV2.2/α2δ-2 calcium channel coexpressed with β2a-ΔvHOOK (UniProt Q05152)
[4] = molecular target: CaV2.2/α2δ-2 calcium channel coexpressed with β2a-SH3 (1–135) and β2a-GK (226–442) (UniProt Q05152)

Gβγ (from UniProt P62873 1-340; P59768 1-71) (complex)
basal facilitation (P2/P1) ratio at +10 mV without agonist [1]: 1.43 | dissociation rate of Gβγ at +120 mV (from τdissoc) [2]: 46.9 s⁻¹ | time constant for rebinding of Gβγ at −100 mV (reinhibition after the prepulse) [2]: 248 ms | dissociation rate of Gβγ at +120 mV (from τdissoc) [3]: 29.7 s⁻¹ | time constant for rebinding of Gβγ at −100 mV (reinhibition after the prepulse) [3]: 296 ms | basal facilitation (P2/P1) of peak IBa at +10 mV in the absence of agonist [4]: 2.61 | time constant for the removal of tonic inhibition (τdissoc) at +120 mV [4]: 29.1 ms
